This is an account of results in patent US20200308257A1 (VISTERRA, published 2020).

What all share (test): cell-based or functional assay
Assay [1] addresses T1, hemagglutinin (HA) of influenza A/PR/8/1934 (H1N1) (influenza A virus (H1N1), UniProt P03452 18-565).
For assay [2], the target named is hemagglutinin (HA) of influenza A/South Africa/81130/2017 (H3N2) (influenza A virus (H3N2)).
In assay [3] the target is hemagglutinin (HA) of influenza A/South Africa/80521/2017 (H3N2) (influenza A virus (H3N2)).
Assay [4] concerns the target hemagglutinin (HA) of influenza A/South Africa/80811/2017 (H1N1) (influenza A virus (H1N1)).
Assay [5] deals with hemagglutinin (HA) of influenza A/South Africa/80836/2017 (H1N1) (influenza A virus (H1N1)).
Assay [6] has as its target hemagglutinin (HA) of influenza A/South Africa/80308/2017 (H3N2) (influenza A virus (H3N2)).
Assay [7] addresses hemagglutinin (HA) of influenza A/South Africa/81313/2017 (H3N2) (influenza A virus (H3N2)).
The target in assay [8] is hemagglutinin (HA) of influenza A/South Africa/80316/2017 (H3N2) (influenza A virus (H3N2)).
The target in assay [9] is hemagglutinin (HA) of influenza A/South Africa/80839/2017 (H3N2) (influenza A virus (H3N2)).
For assay [10], the target named is hemagglutinin (HA) of influenza A/South Africa/80919/2017 (H3N2) (influenza A virus (H3N2)).
Assay [11] has as its target hemagglutinin (HA) of influenza A/South Africa/0808006/2018 (H1N1) (influenza A virus (H1N1)).
The target of assay [12] is T1, hemagglutinin (HA) of influenza …. The source holds these as a separate data set.
For assay [13], the target named is hemagglutinin (HA) of influenza A/South Africa/80714/2017 (H3N2) (influenza A virus (H3N2)).
Assay [14] concerns the target hemagglutinin (HA) of influenza A/South Africa/80837/2017 (H1N1) (influenza A virus (H1N1)).
The target of assay [15] is hemagglutinin (HA) of influenza A/South Africa/80860/2017 (H1N1) (influenza A virus (H1N1)).

T1 sequence (P03452 18-565 limits assumed): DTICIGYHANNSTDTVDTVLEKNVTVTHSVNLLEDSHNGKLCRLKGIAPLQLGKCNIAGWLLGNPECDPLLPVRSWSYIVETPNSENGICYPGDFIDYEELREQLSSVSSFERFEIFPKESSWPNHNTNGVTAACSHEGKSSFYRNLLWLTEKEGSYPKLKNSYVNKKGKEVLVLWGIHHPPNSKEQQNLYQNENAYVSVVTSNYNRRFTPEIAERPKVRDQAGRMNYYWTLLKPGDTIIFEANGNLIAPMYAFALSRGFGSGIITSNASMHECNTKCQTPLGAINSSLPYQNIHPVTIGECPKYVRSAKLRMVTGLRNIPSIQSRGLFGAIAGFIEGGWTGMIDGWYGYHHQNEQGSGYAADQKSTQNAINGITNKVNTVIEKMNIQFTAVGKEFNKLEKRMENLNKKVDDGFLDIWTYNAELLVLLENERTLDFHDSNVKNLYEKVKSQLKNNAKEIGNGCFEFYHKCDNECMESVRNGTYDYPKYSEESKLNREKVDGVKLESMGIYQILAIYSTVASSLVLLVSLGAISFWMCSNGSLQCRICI

B1: VIS410 (antibody, V domains shown)
VH: QVQLLETGGGLVKPGQSLKLSCAASGFTFTSYAMHWVRQPPGKGLEWVAVVSYDGNYKYYADSVQGRFTISRDNSKNTLYLQMNSLRAEDTAVYYCAKDSRLRSLLYFEWLSQGYFNPWGQGTTLTVSS
VL: DIQMTQSPSSLSASVGDRVTITCRSSQSITFDYKNYLAWYQQKPGKAPKLLIYWGSYLESGVPSRFSGSGSGTDFTLTISSLQPEDFATYYCQQHYRTPPSFGQGTKVEIK
As for B1, the “EC50, antiviral activity against wild-type A/PR/8/1934 (H1N1) virus” value in assay [1] was 7.4 nM. Further, the “IC50, phenotypic IC50 assay (virus infection of MDCK cells)” value (“IC50, phenotypic IC50 assay” for short) in assay [2] was found to be 1 µg/mL; in assay [3], 1.09 µg/mL; in assay [4], 0.38 µg/mL; in assay [5], 0.73 µg/mL; in assay [6] it was 0.91 µg/mL; in [7] it was 1.38 µg/mL. For the same molecule, the “IC50, phenotypic IC50 assay” value is 0.57 µg/mL in assay [8]; 0.41 µg/mL in assay [9]; 2.55 µg/mL in assay [10]; 0.42 µg/mL in assay [11]; 0.13 µg/mL in [13]; 0.25 µg/mL in assay [14]. Moreover, in assay [15], the “IC50, phenotypic IC50 assay” value turned out to be 0.26 µg/mL. Further, the “IC50 (µg/mL), baloxavir-sensitive A/Puerto Rico/8/1934_H1N1 WT virus” value in [12] is 0.3 µg/mL.
